This note sets out measurements from patent US6824991B2, “Human bad polypeptides, encoding nucleic acids and methods of use” (IDUN Pharmaceuticals Inc., priority 1996, dated 2004).

The target of one assay is T1, Bcl-2 (Homo sapiens, UniProt P10415).
T1 construct: expressed in transfected cells; host or cells: yeast strain EGY191
Nature of the assay: yeast two-hybrid assay, human Bad bait with Bcl-2 prey. The format is binding. The conditions noted are these: yeast strain EGY191, LexA-Bad bait, B42 prey, FIG. 3. The text has this: (§1) To assess whether Bcl-2 family members bind to or otherwise interact with human Bad and to map their binding domains, a yeast two-hybrid system was employed using the above described clones. Briefly, the full length human Bad sequence was subcloned into the yeast 2-hybrid vector pEGE202, or “bait-vector” to express Bad as a fusion protein with the DNA-binding protein LexA (Ruden et al., Nature (1991) 350:426-430). Human Bcl-2, Bcl-X, Bax, Bak and Bad were similarly cloned into the yeast 2-hybrid vector pJG4-5, or “prey-vector” to expressed these Bcl-2 family members as fusion proteins with the transcriptional activator B42 (Gyuris et al., Cell (1993) 75:791-803). Briefly, the full length human Bad sequence was amplified by PCR and subcloned into the bait-vector. For the PCR reaction we used the following primers: 5′ATCAGTGAATTCACTATGTTCCAGATCCCA GAC3′ (SEQ ID NO: 4) and 5′ATCGATCTCGAGTCACTGGGAGGGGGCGGA GCT3′ (SEQ ID NO: 5). […]
(§2) To determine if human Bad binds to any of the above Bcl-2 family members, the Bad-bait plasmid was cotransformed with every prey plasmid and the reporter plasmid p18-34 into the yeast strain EGY191. […] The reaction was stopped with 0.4 M NaOH and the plate was read at an OD 420 nm. Protein-protein interaction was measured as beta-galactosidase activity using the following equation: OD 420:(OD 600×0.1 ml×ONPG reaction time).

The target of the next assay is T2, Bcl-XL (Homo sapiens, UniProt Q07817).
T2 construct: expressed in transfected cells; host or cells: yeast strain EGY191
T2 sequence (Q07817 1-212 limits assumed): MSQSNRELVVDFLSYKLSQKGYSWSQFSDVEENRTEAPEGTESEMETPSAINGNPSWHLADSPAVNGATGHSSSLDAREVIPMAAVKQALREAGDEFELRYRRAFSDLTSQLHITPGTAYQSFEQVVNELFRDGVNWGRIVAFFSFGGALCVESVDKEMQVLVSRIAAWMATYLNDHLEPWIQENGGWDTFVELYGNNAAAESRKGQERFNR
Nature of the assay: yeast two-hybrid assay, human Bad bait with Bcl-XL prey. The format is binding. To be noted: yeast strain EGY191, LexA-Bad bait, B42 prey, FIG. 3.
Text: as §1, §2

The next assay deals with T3, Bax (Homo sapiens, UniProt Q07812).
T3 construct: expressed in transfected cells; host or cells: yeast strain EGY191
T3 sequence (Q07812 1-174 limits assumed): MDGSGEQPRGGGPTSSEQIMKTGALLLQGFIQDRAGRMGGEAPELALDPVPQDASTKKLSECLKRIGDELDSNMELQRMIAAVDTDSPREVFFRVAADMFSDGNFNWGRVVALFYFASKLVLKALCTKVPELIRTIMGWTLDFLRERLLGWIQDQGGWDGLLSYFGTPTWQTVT
Nature of the assay: yeast two-hybrid assay, human Bad bait with Bax prey. To be noted: yeast strain EGY191, LexA-Bad bait, B42 prey, FIG. 3. The format is binding.
Text: as §1, §2

In the next assay the target is T4, Bak (Homo sapiens, UniProt Q16611).
T4 construct: expressed in transfected cells; host or cells: yeast strain EGY191
T4 sequence (Q16611 1-190 limits assumed): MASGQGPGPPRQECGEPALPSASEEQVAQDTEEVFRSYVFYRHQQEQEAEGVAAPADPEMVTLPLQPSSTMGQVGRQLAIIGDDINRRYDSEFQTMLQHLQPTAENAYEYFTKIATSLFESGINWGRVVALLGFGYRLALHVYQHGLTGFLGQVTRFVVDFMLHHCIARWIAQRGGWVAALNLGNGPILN
Put plainly: yeast two-hybrid assay, human Bad bait with Bak prey. The format is binding. The conditions noted are these: yeast strain EGY191, LexA-Bad bait, B42 prey, FIG. 3.
Text: as §1, §2

In another assay the target is T5, Bad (Homo sapiens, UniProt Q92934).
T5 construct: expressed in transfected cells; host or cells: yeast strain EGY191
T5 sequence (Q92934 1-168): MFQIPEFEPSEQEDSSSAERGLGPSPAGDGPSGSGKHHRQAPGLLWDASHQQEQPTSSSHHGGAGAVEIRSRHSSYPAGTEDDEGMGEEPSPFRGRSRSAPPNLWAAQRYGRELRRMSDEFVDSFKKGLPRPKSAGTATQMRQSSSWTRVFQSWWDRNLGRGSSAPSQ
Nature of the assay: yeast two-hybrid assay, human Bad bait with Bad prey. The format is binding. To be noted: yeast strain EGY191, LexA-Bad bait, B42 prey, FIG. 3.
Text: as §1, §2

Another assay has as its target T6, GST-Bcl-XL (Homo sapiens, UniProt Q07817).
T6 construct: made in house; host or cells: E. coli XL1-Blue (pGEX constructs); E. coli BL21 pLysS (6HBad)
Put plainly: ELISA-type binding assay, plate-coated 6HBad with GST-Bcl-XL. The conditions noted are these: FIG. 4. The text has this: To generate fusion proteins for these screening assays, Bad and Bcl-xL were cloned into pET-15b (Novagen) and pGEX 4T1 (Pharmacia) vectors, respectively. The pET15b-bad construct was made as follows. Full length bad cDNA was amplified by PCR using cDNA BM1 as template and primers containing NdeI (5′) and XhoI (3′) restriction sites (5′ primer: 5′-GGGAATTCCATATGTTCCAGATCCCAGAG-3′ (SEQ ID NO: 10)); 3′ primer: 5′-TACAGTCTCGAGTCACTGGGAGGGGGCGGAGCT-3′ (SEQ ID NO: 11)). The PCR product was then digested with NdeI/XhoI and ligated into the NdeI and XhoI sites of pET15b. The above primer sequences were chosen such that the bad ORF sequence would be in frame with 5′ vector sequence encoding a six residue Histidine tag. The final construct was termed pET-15 6H Bad. […]

Another assay deals with GST-Bcl-2 (Homo sapiens, UniProt P10415). Nature of the assay: ELISA-type binding assay, plate-coated 6HBad with GST-Bcl-2. To be noted: anti-GST detection, FIG. 4. For orientation: In an ELISA, binding on a coated surface is turned into a signal by an enzyme label.
Sequence of GST-Bcl-2 (P10415 whole entry): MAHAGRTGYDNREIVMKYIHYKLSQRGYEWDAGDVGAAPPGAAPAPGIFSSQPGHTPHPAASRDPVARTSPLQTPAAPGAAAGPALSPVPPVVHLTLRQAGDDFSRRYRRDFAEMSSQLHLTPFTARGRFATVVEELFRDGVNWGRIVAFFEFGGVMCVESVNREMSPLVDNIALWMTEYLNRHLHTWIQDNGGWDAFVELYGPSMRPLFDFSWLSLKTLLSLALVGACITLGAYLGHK

T6 sequence (Q07817 1-211 limits assumed): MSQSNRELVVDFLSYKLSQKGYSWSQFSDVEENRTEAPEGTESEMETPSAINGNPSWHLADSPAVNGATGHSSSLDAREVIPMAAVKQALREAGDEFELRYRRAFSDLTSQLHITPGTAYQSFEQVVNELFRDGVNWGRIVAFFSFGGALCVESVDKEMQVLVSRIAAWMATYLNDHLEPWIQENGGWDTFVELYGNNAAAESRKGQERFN
T1 sequence (P10415 1-218 limits assumed): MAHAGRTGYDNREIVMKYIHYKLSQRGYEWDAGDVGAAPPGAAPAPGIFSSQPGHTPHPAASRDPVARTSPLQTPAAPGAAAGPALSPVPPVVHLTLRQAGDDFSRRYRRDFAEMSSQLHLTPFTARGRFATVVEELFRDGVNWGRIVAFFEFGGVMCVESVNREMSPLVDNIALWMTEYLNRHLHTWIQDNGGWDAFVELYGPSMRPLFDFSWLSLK

B1: human Bad: human Bcl-xL/Bcl-2 associated death promoting polypeptide, SEQ ID NO:2, encoded by cDNA clone BM1 (protein, listed as Homo sapiens)
chain: MFQIPEFEPSEQEDSSSAERGLGPSPAGDGPSGSGKHHRQAPGLLWDASHQQEQPTSSSHHGGAGAVEIRSRHSSYPAGTEDDEGMGEEPSPFRGRSRSAPPNLWAAQRYGRELRRMSDEFVDSFKKGLPRPKSAGTATQMRQSSSWTRVFQSWWDRNLGRGSSAPSQ
Turning to B1, the “protein-protein interaction with Bcl-2 (beta-galactosidase activity)” value with Bcl-2 is given as “interacts”. Further, the “protein-protein interaction with Bcl-XL (beta-galactosidase activity)” value in the assay with Bcl-XL is recorded as “interacts”. Moreover, the “protein-protein interaction with Bax (beta-galactosidase activity)” value in the assay with Bax is given as “no interactions were observed”. The “protein-protein interaction with Bak (beta-galactosidase activity)” value with Bak is “no interactions were observed”. In addition, the “protein-protein interaction with itself (beta-galactosidase activity)” value in the assay with Bad is on record as “no interactions were observed”.

B2: 6HBad: full length human Bad with a six residue Histidine tag, expressed from pET-15 6H Bad in E. coli (protein)
chain: MFQIPEFEPSEQEDSSSAERGLGPSPAGDGPSGSGKHHRQAPGLLWDASHQQEQPTSSSHHGGAGAVEIRSRHSSYPAGTEDDEGMGEEPSPFRGRSRSAPPNLWAAQRYGRELRRMSDEFVDSFKKGLPRPKSAGTATQMRQSSSWTRVFQSWWDRNLGRGSSAPSQ
modifications: left off: small tags and cut ends
Turning to B2, in the assay with GST-Bcl-XL (compared with GST-Bcl-2 and GST-Bax), the “relative binding affinity to GST-Bcl-xL in ELISA” value is “highest affinity”. Besides, in the assay with GST-Bcl-XL (plate-coated 6HBad, anti-GST detection), the “interaction with GST-Bcl-XL in ELISA” value was “interacts”. The “interaction with GST-Bcl-2 in ELISA” value with GST-Bcl-2 is “interacts”.
